We go through nine molecules from patent US12630600B2 (MEDIMMUNE LIMITED, priority 2022, dated 2026).

Starred links: 1 amine or outer side, 2 acyl side, 3 side chain; linkers in the order of their positions; H or OH if unused. Non-standard residues stand in square brackets, D forms with d. Groups on a side chain read outwards from the residue. No end group written: not given here. *: point of attachment. C20 diacid = O=C(O)CCCCCCCCCCCCCCCCCCC(=O)*; C18 diacid = O=C(O)CCCCCCCCCCCCCCCCC(=O)*; γGlu = O=C(O)[C@H](CCC(=O)[*:2])N[*:1]; αMeF = C[C@](N)(Cc1ccccc1)C(=O)O; AEEA = NCCOCCOCC(=O)O; Aib = CC(C)(N)C(=O)O

For one test, the target named is human glucagon receptor (human, UniProt P47871). In words: cell-based or functional assay.
The target of another test is human GLP-1 receptor (human, UniProt P43220). Briefly: cell-based or functional assay.

B1: Peptide 33 (peptide)
peptide: H[Aib]QGTFTSDVSK[αMeF]LDSK([AEEA-AEEA-γGlu-C18 diacid])RAQDFVQWLE[Aib]T-OH
modifications: N-terminus assumed
SMILES: CC(C)C[C@H](NC(=O)[C@H](Cc1c[nH]c2ccccc12)NC(=O)[C@H](CCC(N)=O)NC(=O)[C@@H](NC(=O)[C@H](Cc1ccccc1)NC(=O)[C@H](CC(=O)O)NC(=O)[C@H](CCC(N)=O)NC(=O)[C@H](C)NC(=O)[C@H](CCCNC(=N)N)NC(=O)[C@H](CCCCNC(=O)COCCOCCNC(=O)COCCOCCNC(=O)CC[C@H](NC(=O)CCCCCCCCCCCCCCCCC(=O)O)C(=O)O)NC(=O)[C@H](CO)NC(=O)[C@H](CC(=O)O)NC(=O)[C@H](CC(C)C)NC(=O)[C@](C)(Cc1ccccc1)NC(=O)[C@H](CCCCN)NC(=O)[C@H](CO)NC(=O)[C@@H](NC(=O)[C@H](CC(=O)O)NC(=O)[C@H](CO)NC(=O)[C@@H](NC(=O)[C@H](Cc1ccccc1)NC(=O)[C@@H](NC(=O)CNC(=O)[C@H](CCC(N)=O)NC(=O)C(C)(C)NC(=O)[C@@H](N)Cc1c[nH]cn1)[C@@H](C)O)[C@@H](C)O)C(C)C)C(C)C)C(=O)N[C@@H](CCC(=O)O)C(=O)NC(C)(C)C(=O)N[C@H](C(=O)O)[C@@H](C)O
On to B1, for which the results for the “cAMP production EC50” value in the test with human glucagon receptor and with human GLP-1 receptor were 0.548 nM and 0.213 nM, respectively.

B2: Peptide 518 (peptide)
peptide: H[Aib]QGTFTSDVSK[αMeF]LDTK([AEEA-AEEA-γGlu-γGlu-C18 diacid])RARDFVQWLLE[Aib]G-OH
modifications: N-terminus assumed
SMILES: CC(C)C[C@H](NC(=O)[C@H](Cc1c[nH]c2ccccc12)NC(=O)[C@H](CCC(N)=O)NC(=O)[C@@H](NC(=O)[C@H](Cc1ccccc1)NC(=O)[C@H](CC(=O)O)NC(=O)[C@H](CCCNC(=N)N)NC(=O)[C@H](C)NC(=O)[C@H](CCCNC(=N)N)NC(=O)[C@H](CCCCNC(=O)COCCOCCNC(=O)COCCOCCNC(=O)CC[C@H](NC(=O)CC[C@H](NC(=O)CCCCCCCCCCCCCCCCC(=O)O)C(=O)O)C(=O)O)NC(=O)[C@@H](NC(=O)[C@H](CC(=O)O)NC(=O)[C@H](CC(C)C)NC(=O)[C@](C)(Cc1ccccc1)NC(=O)[C@H](CCCCN)NC(=O)[C@H](CO)NC(=O)[C@@H](NC(=O)[C@H](CC(=O)O)NC(=O)[C@H](CO)NC(=O)[C@@H](NC(=O)[C@H](Cc1ccccc1)NC(=O)[C@@H](NC(=O)CNC(=O)[C@H](CCC(N)=O)NC(=O)C(C)(C)NC(=O)[C@@H](N)Cc1c[nH]cn1)[C@@H](C)O)[C@@H](C)O)C(C)C)[C@@H](C)O)C(C)C)C(=O)N[C@@H](CC(C)C)C(=O)N[C@@H](CCC(=O)O)C(=O)NC(C)(C)C(=O)NCC(=O)O
In the case of B2, the entries for the “cAMP production EC50” value in the test with human glucagon receptor and in the test with human GLP-1 receptor were 0.0773 nM and 0.031 nM, respectively.

B3: Peptide 153 (peptide)
peptide: H[Aib]QGTFTSDVSK[αMeF]LDSK([AEEA-AEEA-γGlu-C20 diacid])RAQDFVRWLL[Aib]E-OH
modifications: N-terminus assumed
SMILES: CC(C)C[C@H](NC(=O)[C@H](Cc1c[nH]c2ccccc12)NC(=O)[C@H](CCCNC(=N)N)NC(=O)[C@@H](NC(=O)[C@H](Cc1ccccc1)NC(=O)[C@H](CC(=O)O)NC(=O)[C@H](CCC(N)=O)NC(=O)[C@H](C)NC(=O)[C@H](CCCNC(=N)N)NC(=O)[C@H](CCCCNC(=O)COCCOCCNC(=O)COCCOCCNC(=O)CC[C@H](NC(=O)CCCCCCCCCCCCCCCCCCC(=O)O)C(=O)O)NC(=O)[C@H](CO)NC(=O)[C@H](CC(=O)O)NC(=O)[C@H](CC(C)C)NC(=O)[C@](C)(Cc1ccccc1)NC(=O)[C@H](CCCCN)NC(=O)[C@H](CO)NC(=O)[C@@H](NC(=O)[C@H](CC(=O)O)NC(=O)[C@H](CO)NC(=O)[C@@H](NC(=O)[C@H](Cc1ccccc1)NC(=O)[C@@H](NC(=O)CNC(=O)[C@H](CCC(N)=O)NC(=O)C(C)(C)NC(=O)[C@@H](N)Cc1c[nH]cn1)[C@@H](C)O)[C@@H](C)O)C(C)C)C(C)C)C(=O)N[C@@H](CC(C)C)C(=O)NC(C)(C)C(=O)N[C@@H](CCC(=O)O)C(=O)O
For B3, the “cAMP production EC50” value with human glucagon receptor worked out at 0.099 nM; with human GLP-1 receptor it was 0.0412 nM.

B4: Peptide 36 (peptide)
peptide: H[Aib]QGTFTSDVSK[αMeF]LDSK([AEEA-AEEA-γGlu-C18 diacid])RARDFVQWLL[Aib]T-OH
modifications: N-terminus assumed
SMILES: CC(C)C[C@H](NC(=O)[C@H](Cc1c[nH]c2ccccc12)NC(=O)[C@H](CCC(N)=O)NC(=O)[C@@H](NC(=O)[C@H](Cc1ccccc1)NC(=O)[C@H](CC(=O)O)NC(=O)[C@H](CCCNC(=N)N)NC(=O)[C@H](C)NC(=O)[C@H](CCCNC(=N)N)NC(=O)[C@H](CCCCNC(=O)COCCOCCNC(=O)COCCOCCNC(=O)CC[C@H](NC(=O)CCCCCCCCCCCCCCCCC(=O)O)C(=O)O)NC(=O)[C@H](CO)NC(=O)[C@H](CC(=O)O)NC(=O)[C@H](CC(C)C)NC(=O)[C@](C)(Cc1ccccc1)NC(=O)[C@H](CCCCN)NC(=O)[C@H](CO)NC(=O)[C@@H](NC(=O)[C@H](CC(=O)O)NC(=O)[C@H](CO)NC(=O)[C@@H](NC(=O)[C@H](Cc1ccccc1)NC(=O)[C@@H](NC(=O)CNC(=O)[C@H](CCC(N)=O)NC(=O)C(C)(C)NC(=O)[C@@H](N)Cc1c[nH]cn1)[C@@H](C)O)[C@@H](C)O)C(C)C)C(C)C)C(=O)N[C@@H](CC(C)C)C(=O)NC(C)(C)C(=O)N[C@H](C(=O)O)[C@@H](C)O
On to B4, for which the “cAMP production EC50” value with human glucagon receptor is 0.278 nM; with human GLP-1 receptor, 0.0431 nM.
With H[Aib]QGTFTSDVSK[αMeF]LDTKRARDFVQWLLE[Aib]G-OH (not fully specified (residue 17)) [Peptide 520], the “cAMP production EC50” value with human glucagon receptor turned out to be 1.62 nM; in the test with human GLP-1 receptor, 0.543 nM.

B5: Peptide 152 (peptide)
peptide: H[Aib]QGTFTSDVSK[αMeF]LDSK([AEEA-AEEA-γGlu-C18 diacid])RAQDFVRWLL[Aib]E-OH
modifications: N-terminus assumed
SMILES: CC(C)C[C@H](NC(=O)[C@H](Cc1c[nH]c2ccccc12)NC(=O)[C@H](CCCNC(=N)N)NC(=O)[C@@H](NC(=O)[C@H](Cc1ccccc1)NC(=O)[C@H](CC(=O)O)NC(=O)[C@H](CCC(N)=O)NC(=O)[C@H](C)NC(=O)[C@H](CCCNC(=N)N)NC(=O)[C@H](CCCCNC(=O)COCCOCCNC(=O)COCCOCCNC(=O)CC[C@H](NC(=O)CCCCCCCCCCCCCCCCC(=O)O)C(=O)O)NC(=O)[C@H](CO)NC(=O)[C@H](CC(=O)O)NC(=O)[C@H](CC(C)C)NC(=O)[C@](C)(Cc1ccccc1)NC(=O)[C@H](CCCCN)NC(=O)[C@H](CO)NC(=O)[C@@H](NC(=O)[C@H](CC(=O)O)NC(=O)[C@H](CO)NC(=O)[C@@H](NC(=O)[C@H](Cc1ccccc1)NC(=O)[C@@H](NC(=O)CNC(=O)[C@H](CCC(N)=O)NC(=O)C(C)(C)NC(=O)[C@@H](N)Cc1c[nH]cn1)[C@@H](C)O)[C@@H](C)O)C(C)C)C(C)C)C(=O)N[C@@H](CC(C)C)C(=O)NC(C)(C)C(=O)N[C@@H](CCC(=O)O)C(=O)O
With B5, the “cAMP production EC50” value in the test with human glucagon receptor was 0.0204 nM; with human GLP-1 receptor it was 0.0119 nM.

B6: Peptide 519 (peptide)
peptide: H[Aib]QGTFTSDVSK[αMeF]LDTK([γGlu-γGlu-AEEA-AEEA-γGlu-γGlu-C18 diacid])RARDFVQWLLE[Aib]G-OH
modifications: N-terminus assumed
SMILES: CC(C)C[C@H](NC(=O)[C@H](Cc1c[nH]c2ccccc12)NC(=O)[C@H](CCC(N)=O)NC(=O)[C@@H](NC(=O)[C@H](Cc1ccccc1)NC(=O)[C@H](CC(=O)O)NC(=O)[C@H](CCCNC(=N)N)NC(=O)[C@H](C)NC(=O)[C@H](CCCNC(=N)N)NC(=O)[C@H](CCCCNC(=O)CC[C@H](NC(=O)CC[C@H](NC(=O)COCCOCCNC(=O)COCCOCCNC(=O)CC[C@H](NC(=O)CC[C@H](NC(=O)CCCCCCCCCCCCCCCCC(=O)O)C(=O)O)C(=O)O)C(=O)O)C(=O)O)NC(=O)[C@@H](NC(=O)[C@H](CC(=O)O)NC(=O)[C@H](CC(C)C)NC(=O)[C@](C)(Cc1ccccc1)NC(=O)[C@H](CCCCN)NC(=O)[C@H](CO)NC(=O)[C@@H](NC(=O)[C@H](CC(=O)O)NC(=O)[C@H](CO)NC(=O)[C@@H](NC(=O)[C@H](Cc1ccccc1)NC(=O)[C@@H](NC(=O)CNC(=O)[C@H](CCC(N)=O)NC(=O)C(C)(C)NC(=O)[C@@H](N)Cc1c[nH]cn1)[C@@H](C)O)[C@@H](C)O)C(C)C)[C@@H](C)O)C(C)C)C(=O)N[C@@H](CC(C)C)C(=O)N[C@@H](CCC(=O)O)C(=O)NC(C)(C)C(=O)NCC(=O)O
With B6, the “cAMP production EC50” value with human glucagon receptor worked out at 0.386 nM; with human GLP-1 receptor it was 0.172 nM.

B7: Peptide 34 (peptide)
peptide: H[Aib]QGTFTSDVSK[αMeF]LDSK([AEEA-AEEA-γGlu-C18 diacid])RAQDFVQWLL[Aib]E-OH
modifications: N-terminus assumed
SMILES: CC(C)C[C@H](NC(=O)[C@H](Cc1c[nH]c2ccccc12)NC(=O)[C@H](CCC(N)=O)NC(=O)[C@@H](NC(=O)[C@H](Cc1ccccc1)NC(=O)[C@H](CC(=O)O)NC(=O)[C@H](CCC(N)=O)NC(=O)[C@H](C)NC(=O)[C@H](CCCNC(=N)N)NC(=O)[C@H](CCCCNC(=O)COCCOCCNC(=O)COCCOCCNC(=O)CC[C@H](NC(=O)CCCCCCCCCCCCCCCCC(=O)O)C(=O)O)NC(=O)[C@H](CO)NC(=O)[C@H](CC(=O)O)NC(=O)[C@H](CC(C)C)NC(=O)[C@](C)(Cc1ccccc1)NC(=O)[C@H](CCCCN)NC(=O)[C@H](CO)NC(=O)[C@@H](NC(=O)[C@H](CC(=O)O)NC(=O)[C@H](CO)NC(=O)[C@@H](NC(=O)[C@H](Cc1ccccc1)NC(=O)[C@@H](NC(=O)CNC(=O)[C@H](CCC(N)=O)NC(=O)C(C)(C)NC(=O)[C@@H](N)Cc1c[nH]cn1)[C@@H](C)O)[C@@H](C)O)C(C)C)C(C)C)C(=O)N[C@@H](CC(C)C)C(=O)NC(C)(C)C(=O)N[C@@H](CCC(=O)O)C(=O)O
In the case of B7, the “cAMP production EC50” value came out at 0.161 nM in the test with human glucagon receptor and 0.0824 nM in the test with human GLP-1 receptor.
For H[Aib]QGTFTSDVSK[αMeF]LDSK([AEEA-AEEA-γGlu-C18 diacid])RARDFVRWLL[Aib]TE-OH (also: αMePhe at 23 (V)) [Peptide 166], the “cAMP production EC50” value with human glucagon receptor was found to be 0.27 nM; in the test with human GLP-1 receptor, 0.048 nM.
